± gives the uncertainty stated by the source.
B1: POU domain, class 3, transcription factor 2, residues 262 to 338; numbered along this chain, P20265 (parent)
chain: EDTPTSDDLEQFAKQFKQRRIKLGFTQADVGLALGTLYGNVFSQTTICRFEALQLSFKNMCKLKPLLNKWLEEADSS

Variants of: B1
Experiment: abundance fitness (aPCA) (normalised: wild type 0, dead -1); higher = more abundant; growth selection in yeast, the domain comes from the species named
Details: Homo sapiens

Variant	abundance fitness
EDTPTSDDLEQFAKQFKQRRIKLGFTQADQGLALGTLYGNVFSQTTICRFEALQLSFKNMCKLKPLLNKWLEEADSS [V30Q]	-1.11 ± 0.23
EDTPTSDDLEQFAKQPKQRRIKLGFTQADVGLALGTLYGNVFSQTTICRFEALQLSFKNMCKLKPLLNKWLEEADSS [F16P]	-0.733 ± 0.081
EDTPTSDDLEQFAKQVKQRRIKLGFTQADVGLALGTLYGNVFSQTTICRFEALQLSFKNMCKLKPLLNKWLEEADSS [F16V]	-0.671 ± 0.042
EDTPTSDDLEQFAKQFKQRRIKLGFTQADVGLALGTLYGNVFSQTTICRFEALQLSFKNMCKLKPLLNKWLEEADSK [S77K]	-0.097 ± 0.074
EDTPTSDDLEQFAKQFKQRRIKLGFTQADVGLALGTLYGNVFSQTTICRFEALQLSFKNMCKLKPLLNKWLEEADSC [S77C]	-0.184 ± 0.067
EDTPTSDDLEQFAKKFKQRRIKLGFTQADVGLALGTLYGNVFSQTTICRFEALQLSFKNMCKLKPLLNKWLEEADSS [Q15K]	-0.003 ± 0.046
EDTPTSDDLEQFAKQFKQRRIKLGFTQADVGLALGTLYGHVFSQTTICRFEALQLSFKNMCKLKPLLNKWLEEADSS [N40H]	0.06 ± 0.085
EDTPTSDDLEQFAKQFKQRRIKLGFTQADVGLALGTLYGNVFSQTTICRFEALQLSFKNMCKLKPLLNKWLTEADSS [E72T]	-0.073 ± 0.042
EDTPTSDDLEQFAKQFKQRRIKLGFTQADVGLALGTLYGNVFSQTTICRFSALQLSFKNMCKLKPLLNKWLEEADSS [E51S]	-0.88 ± 0.096
EDTPTSDDLEQFAKQFKQRRIKLGFTQDDVGLALGTLYGNVFSQTTICRFEALQLSFKNMCKLKPLLNKWLEEADSS [A28D]	-0.182 ± 0.068
EDTPTSDDLEQFAKQFRQRRIKLGFTQADVGLALGTLYGNVFSQTTICRFEALQLSFKNMCKLKPLLNKWLEEADSS [K17R]	-0.05 ± 0.023
EDTPTSDDLEQFAKQFKQRRIKLGFTQADVGLALGTLYGNVFSQTTICRFEALQLSFKNMCKLKPLLNKWLEEGDSS [A74G]	-0.331 ± 0.03
EDTPTSDDLEQFAKQFKQRRIKLGGTQADVGLALGTLYGNVFSQTTICRFEALQLSFKNMCKLKPLLNKWLEEADSS [F25G]	-0.983 ± 0.072
EDTPTSDDLEQFAKQFKQRRIKLGATQADVGLALGTLYGNVFSQTTICRFEALQLSFKNMCKLKPLLNKWLEEADSS [F25A]	-0.183 ± 0.033
EDTPTSDDLEQFAKQFKQRRIKLYFTQADVGLALGTLYGNVFSQTTICRFEALQLSFKNMCKLKPLLNKWLEEADSS [G24Y]	-0.86 ± 0.12
EDTPTSDDLEQFAKQFKQRRIKLGFTQADVGLALGTLYGNVLSQTTICRFEALQLSFKNMCKLKPLLNKWLEEADSS [F42L]	0.053 ± 0.034
EDTPTSDDLEQFAKQFKQRRIKLGFTQADVGLALGTLYDNVFSQTTICRFEALQLSFKNMCKLKPLLNKWLEEADSS [G39D]	-0.079 ± 0.053
EDTPTSDDLEQFAKQFKQRRIKLGFTQADVGLALGTLYLNVFSQTTICRFEALQLSFKNMCKLKPLLNKWLEEADSS [G39L]	-0.754 ± 0.076

Variant	abundance fitness
EDTPTSDDLEQFAKQFKQRRIKLGFTQADVGLALGTLYNNVFSQTTICRFEALQLSFKNMCKLKPLLNKWLEEADSS [G39N]	-0.012 ± 0.066
EDTPTSDDLEQFAKQFKQRRIKLGFTQADVGLALGTTYGNVFSQTTICRFEALQLSFKNMCKLKPLLNKWLEEADSS [L37T]	0.048 ± 0.044
EDTPTSDDLEQFAKQFKQRSIKLGFTQADVGLALGTLYGNVFSQTTICRFEALQLSFKNMCKLKPLLNKWLEEADSS [R20S]	-0.694 ± 0.084
EDTPTSDDLEQFAKQFKQRRIKLGFTQADVGLALGTLYGNVFSQTTICRFEALQLSFKNMCVLKPLLNKWLEEADSS [K62V]	-0.089 ± 0.031
EDTPTSDDLEQFAKQFKQRRIKLGFTQADVGLALGTLYGNVFSQTTICRFEALQLSFKNMCKLKPLLNKWLEEAKSS [D75K]	-0.058 ± 0.047
EDTWTSDDLEQFAKQFKQRRIKLGFTQADVGLALGTLYGNVFSQTTICRFEALQLSFKNMCKLKPLLNKWLEEADSS [P4W]	0.091 ± 0.044
EDTPTSDALEQFAKQFKQRRIKLGFTQADVGLALGTLYGNVFSQTTICRFEALQLSFKNMCKLKPLLNKWLEEADSS [D8A]	-0.006 ± 0.038
EDTPTSDDLEQFAKQFKQRRIKLGFTQADVGLALGTLYGNVFLQTTICRFEALQLSFKNMCKLKPLLNKWLEEADSS [S43L]	-0.485 ± 0.049
EDTPTSDDLEMFAKQFKQRRIKLGFTQADVGLALGTLYGNVFSQTTICRFEALQLSFKNMCKLKPLLNKWLEEADSS [Q11M]	0.035 ± 0.046
EDTPTSDDLESFAKQFKQRRIKLGFTQADVGLALGTLYGNVFSQTTICRFEALQLSFKNMCKLKPLLNKWLEEADSS [Q11S]	-0.046 ± 0.035
EDTPTSDDLEQFAKQFKQRRIKLGFTQADVGLALGTLYGNVFSQTTICRFEALQLSFKNMCKLKPLLNKWLERADSS [E73R]	-0.147 ± 0.066
EDTPTSDDLEQFAKQFKQRRIKLGFTQADVGLALGTLYGNVFSQTTICRFEALQLSFKNMCKLKPLLNKWLEEADHS [S76H]	0.023 ± 0.064
EDTPTSDDLEQFAKQFKQRRIKLGFTQADVGLALGTLYGNVFSQTTICRFEALQLSFKNMCKLKPLLNKWLEEADKS [S76K]	0.021 ± 0.046
EDTPTSDDLEQFAKQFKQRRIKLGFTQADVGLALATLYGNVFSQTTICRFEALQLSFKNMCKLKPLLNKWLEEADSS [G35A]	-0.016 ± 0.033
EDTPTSDDLEQFAKQFKQRRIKLGFTQADVGLALGTLYGNVFSQTTICRFEALQLSFKNMCKLKPLLNKRLEEADSS [W70R]	-0.649 ± 0.039
EDTPTSDDLEQFAKQFKQRRIKLGFTQADVGLALGTLYGNVFSQTTICRFEALQLSFKNMCKLKPLLNKMLEEADSS [W70M]	-0.669 ± 0.084
EDTPTSDDIEQFAKQFKQRRIKLGFTQADVGLALGTLYGNVFSQTTICRFEALQLSFKNMCKLKPLLNKWLEEADSS [L9I]	0.074 ± 0.047
EDTPTSDDLEQFAKQFKQRRIKLGFTQADVGLALGTLYGNVFSQTTICRFEALQLSFKNMCKLKPFLNKWLEEADSS [L66F]	-0.05 ± 0.048
